From US20250283063, “NOVEL CRISPR-CAS12I SYSTEMS AND USES THEREOF” (HUIDAGENE THERAPEUTICS (SINGAPORE) PTE. LTD., published 2025)

Assays:
[1] = target: T1, Cas12Max (xCas12i-N243R, v1.1) (N243R); test: cell_activity; PAM TTTG; OT-1; details: tags: NLS
T1 chain: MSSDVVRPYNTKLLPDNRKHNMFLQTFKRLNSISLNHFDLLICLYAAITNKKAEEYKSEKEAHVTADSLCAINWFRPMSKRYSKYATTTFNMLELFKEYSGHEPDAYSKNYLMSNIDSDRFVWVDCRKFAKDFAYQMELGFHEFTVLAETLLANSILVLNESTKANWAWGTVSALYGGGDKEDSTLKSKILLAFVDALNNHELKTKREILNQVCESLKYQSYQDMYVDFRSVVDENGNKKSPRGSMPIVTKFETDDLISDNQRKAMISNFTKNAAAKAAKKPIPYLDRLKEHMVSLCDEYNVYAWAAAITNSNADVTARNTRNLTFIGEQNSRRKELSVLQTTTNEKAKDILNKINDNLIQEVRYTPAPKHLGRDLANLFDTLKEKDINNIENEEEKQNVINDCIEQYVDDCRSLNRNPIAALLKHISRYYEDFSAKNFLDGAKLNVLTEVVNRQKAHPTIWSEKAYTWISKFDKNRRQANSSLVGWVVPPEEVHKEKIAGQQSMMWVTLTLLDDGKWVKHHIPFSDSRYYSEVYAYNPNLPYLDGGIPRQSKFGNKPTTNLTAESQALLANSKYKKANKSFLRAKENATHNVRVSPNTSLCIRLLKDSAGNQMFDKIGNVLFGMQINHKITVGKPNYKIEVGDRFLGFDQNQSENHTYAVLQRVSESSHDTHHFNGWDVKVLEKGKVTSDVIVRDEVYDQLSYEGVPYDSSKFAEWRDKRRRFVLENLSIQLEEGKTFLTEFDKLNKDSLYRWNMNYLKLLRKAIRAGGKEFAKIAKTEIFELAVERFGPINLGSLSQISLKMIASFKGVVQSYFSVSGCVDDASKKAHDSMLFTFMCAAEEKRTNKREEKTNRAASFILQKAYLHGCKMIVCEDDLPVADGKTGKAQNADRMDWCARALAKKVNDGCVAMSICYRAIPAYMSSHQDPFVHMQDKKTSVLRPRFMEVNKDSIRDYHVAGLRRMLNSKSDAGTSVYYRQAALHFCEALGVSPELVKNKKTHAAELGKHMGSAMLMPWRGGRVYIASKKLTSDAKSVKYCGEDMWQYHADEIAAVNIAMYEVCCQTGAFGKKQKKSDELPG
Description: (§1) HEK293T cells were cultured in 24-well tissue culture plates according to standard methods for 12 hours, before the reporter and expression plasmids were co-transfected into the cells using standard polyethyleneimine (PEI) transfection. The transfected cells were then cultured at 37° C. under 5% CO₂ for 48 hours. Then the cultured cells were analyzed by flow cytometry for BFP, EGFP, and mCherry fluorescent signals. A “blank” control group was also set up, where only the reporter plasmid was transfected, and no expression plasmid was introduced.
(§2) A dual plasmid fluorescent reporter system for evaluation of off-target dsDNA cleavage activity (off-target reporter system; referring to “Off-Target Reporter” in FIG. 1B) was established, which was similar to the dual plasmid fluorescent reporter system in Example 6 for evaluation of (on-target) dsDNA cleavage activity, except that the insertion sequence of the EGxxxxFP coding sequence contains an TTR off-target protospacer sequence (one of SEQ ID NOs: 127-129) containing one or more mismatches (bold, underlined) with a TTR-targeting spacer sequence (SEQ ID NO: 130) in the gRNA, rather than containing a TTR on-target protospacer sequence (SEQ ID NO: 130; which is the same as SEQ ID NO: 107 in Example 5); DR-T1 sequence (SEQ ID NO: 451) was used. To save drafting, the on-target protospacer sequence/spacer sequence in Table 7 refer to both the protospacer sequence (a DNA sequence) and the corresponding spacer sequence (an RNA sequence) with any “T” in the sequence when referring to a protospacer sequences standing for “T” and when referring to a such spacer sequence standing for “U”, although the assigned SEQ ID NO: 130 in the sequence listing is annotated as DNA.

xCas12i v6.1 = target: T2, xCas12i v6.1 (N243R,E336R,V880R); test: cell_activity; PAM TTTG; OT-1; details: tags: NLS
T2 chain: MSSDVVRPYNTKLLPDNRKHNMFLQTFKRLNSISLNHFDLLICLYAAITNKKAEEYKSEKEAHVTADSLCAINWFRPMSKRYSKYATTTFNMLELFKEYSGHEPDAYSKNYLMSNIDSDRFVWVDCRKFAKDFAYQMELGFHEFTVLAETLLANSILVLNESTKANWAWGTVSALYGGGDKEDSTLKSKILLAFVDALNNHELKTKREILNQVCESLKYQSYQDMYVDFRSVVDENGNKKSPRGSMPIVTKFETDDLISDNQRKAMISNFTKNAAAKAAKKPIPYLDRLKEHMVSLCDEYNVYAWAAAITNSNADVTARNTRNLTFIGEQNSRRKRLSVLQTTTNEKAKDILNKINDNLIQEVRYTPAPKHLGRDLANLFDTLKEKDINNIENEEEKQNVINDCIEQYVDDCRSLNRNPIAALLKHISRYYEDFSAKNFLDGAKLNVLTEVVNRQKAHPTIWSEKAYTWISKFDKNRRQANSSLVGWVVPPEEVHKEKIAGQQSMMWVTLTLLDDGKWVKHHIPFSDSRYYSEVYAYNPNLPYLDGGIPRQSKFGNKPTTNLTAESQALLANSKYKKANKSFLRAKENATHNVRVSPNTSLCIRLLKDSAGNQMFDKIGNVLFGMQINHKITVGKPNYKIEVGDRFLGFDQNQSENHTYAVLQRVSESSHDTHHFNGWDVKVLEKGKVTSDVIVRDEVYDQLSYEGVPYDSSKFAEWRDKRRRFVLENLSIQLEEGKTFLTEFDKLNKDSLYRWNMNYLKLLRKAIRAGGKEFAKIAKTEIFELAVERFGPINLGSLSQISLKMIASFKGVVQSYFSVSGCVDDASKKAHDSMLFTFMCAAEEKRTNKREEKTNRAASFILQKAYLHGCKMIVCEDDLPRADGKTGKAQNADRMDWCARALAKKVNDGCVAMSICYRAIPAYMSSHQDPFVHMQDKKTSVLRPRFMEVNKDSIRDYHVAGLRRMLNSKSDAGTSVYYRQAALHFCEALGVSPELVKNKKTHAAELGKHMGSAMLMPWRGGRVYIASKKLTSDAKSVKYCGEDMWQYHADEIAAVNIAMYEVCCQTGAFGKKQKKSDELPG
Description: as §1, §2

B1: TTR.2 crRNA ; TTR OT.1 (ssRNA ; dsDNA)
RNA: AUGACUCAGAAAUGUGUCCCCAGUUGACACUAGAAGGGAUAUACAAAGUGGA
DNA 1: TTTGTAGAAGGGATATAGAAAGTATC
DNA 2: GATACTTTCTATATCCCTTCTACAAA
For B1, the activity [1] was 60.2% and the activity (xCas12i v6.1) was 2.04%.
